Results on nine molecules are retold here after publication PMC6803030 (Inorganic chemistry, 2019).

Common to all, as to assay: SEC
One series has as its target T1, mS100A9(H105A) (murine, UniProt P31725 2-113, H105A).
T1 sequence (looked up): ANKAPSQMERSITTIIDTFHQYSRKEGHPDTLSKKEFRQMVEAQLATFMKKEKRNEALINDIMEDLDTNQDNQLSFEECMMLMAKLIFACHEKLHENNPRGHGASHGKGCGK

In another series the target is T2, mS100A9(H107A) (murine, UniProt P31725 2-113, H107A).
T2 sequence (looked up): T1 sequence (looked up) with A104H, H106A

Another series addresses T3, mS100A9(H103A)(H105A) (murine, UniProt P31725 2-113, H103A | H105A).
T3 sequence (looked up): T1 sequence (looked up) with H102A

In another series the target is T4, mS100A9(H105A)(H107A) (murine, UniProt P31725 2-113, H105A | H107A).
T4 sequence (looked up): T1 sequence (looked up) with H106A

The target of series [1] is T5, mS100A9 (murine S100A9 subunit of calprotectin) (murine, UniProt P31725 1-113).
T5 sequence (looked up): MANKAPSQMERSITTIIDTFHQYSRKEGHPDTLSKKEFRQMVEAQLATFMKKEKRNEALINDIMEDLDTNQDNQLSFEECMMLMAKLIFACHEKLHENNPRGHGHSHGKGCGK

For a further series, the target named is T6, mS100A9(H103A) (murine, UniProt P31725 2-113, H103A).
T6 sequence (looked up): T1 sequence (looked up) with H102A, A104H

A further series addresses T7, mS100A9(H103A)(H107A) (murine, UniProt P31725 2-113, H103A | H107A).
T7 sequence (looked up): T1 sequence (looked up) with H102A, A104H, H106A

Series [2] concerns the molecule itself.
Series [3] deals with the molecule itself. The source holds these as a separate data set.

Numbering of substitutions follows the chain as printed. In names and notes the source's numbering stands. Read-outs that look alike come from different tables or passages of the source.

B1: mS100A8 (murine S100A8 subunit of calprotectin) (natural protein, UniProt P27005 1-89, looked up)
chain: MPSELEKALSNLIDVYHNYSNIQGNHHALYKNDFKKMVTTECPQFVQNINIENLFRELDINSDNAINFEEFLAMVIKVGVASHKDSHKE
B1: the binding result (with mS100A9(H105A); with mS100A9(H107A); with mS100A9(H103A)(H105A); with mS100A9(H105A)(H107A); in [1]; with mS100A9(H103A)) was “binds” in each case. For the same molecule, in the series with mS100A9(H103A)(H107A), the binding result was “binds”.

B2: mCP(H105A)(H107A), mS100A8/mS100A9(H105A)(H107A) (complex, murine)
chain 1: B1 chain
chain 2: T1 sequence (looked up) with H106A
Turning to B2, the binding result in the series “SEC [2]” is given as “binds”.

B3: mCP(H103A), mS100A8/mS100A9(H103A) (complex, murine)
chain 1: B1 chain
chain 2: T1 sequence (looked up) with H102A, A104H
Regarding B3, the binding result in “SEC [2]” is given as “binds”.

B4: mCP ∆His3Asp variant, mS100A8(H83A)(H87A)/mS100A9(H21A)(D31A) (complex, murine)
chain 1: B1 chain with H83A, H87A
chain 2: T1 sequence (looked up) with H20A, D30A, A104H
As for B4, the binding result in the series “SEC [2]” is reported as “binds”.

B5: mCP(H103A)(H105A), mS100A8/mS100A9(H103A)(H105A) (complex, murine)
chain 1: B1 chain
chain 2: T1 sequence (looked up) with H102A
B5: in the series “SEC [2]”, the binding result was “binds”.

B6: mCP(H103A)(H107A), mS100A8/mS100A9(H103A)(H107A) (complex, murine)
chain 1: B1 chain
chain 2: T1 sequence (looked up) with H102A, A104H, H106A
As to B6, the binding result in the series “SEC [2]” is “binds”.

B7: mCP(H107A), mS100A8/mS100A9(H107A) (complex, murine)
chain 1: B1 chain
chain 2: T1 sequence (looked up) with A104H, H106A
For B7, the binding result in “SEC [2]” is “binds”.

B8: mCP(H105A), mS100A8/mS100A9(H105A) (complex, murine)
chain 1: B1 chain
chain 2: T1 sequence (looked up)
Take B8: in the series “SEC [2]”, the binding result is listed as “binds”.

B9: murine calprotectin (mS100A8/mS100A9 heterodimer) (complex)
chain 1: B1 chain
chain 2: T5 sequence (looked up)
Turning to B9, the binding result in the series “SEC [3]” was “binds”.
